Reference: US20140179896A1 (published 2014)
Numbering of substitutions follows the chain as printed.

B1: D1 (designed binder)
chain: EVVAATPTSLLISWRHPHFPTRYYRITYGETGGNSPVQEFTVPLQPPTATISGLKPGVDYTITGYAVTVERNGRMLMTPISINYRT
notes: 10Fn3 clone, Del 1-8
B2: D3 (designed binder)
chain: B1 chain with M75A
notes: 10Fn3 clone, Del 1-8
B3: D5 (designed binder)
chain: B1 chain with M75T, T78M
notes: 10Fn3 clone, Del 1-8
B4: E14 (designed binder)
chain: B1 chain with V69L, R74Q, M75V, M77F
notes: 10Fn3 clone, Del 1-8
B5: E15 (designed binder)
chain: B1 chain with V69L, R71P, M75Y, T78V
notes: 10Fn3 clone, Del 1-8
B6: D2 (designed binder)
chain: B1 chain with M75N
notes: 10Fn3 clone, Del 1-8
B7: E16 (designed binder)
chain: B1 chain with R71E, M75Q
notes: 10Fn3 clone, Del 1-8
B8: E8 (designed binder)
chain: B1 chain with V69E, R71W, M75V
notes: 10Fn3 clone, Del 1-8
B9: D9 (designed binder)
chain: B1 chain with V69E, M75V, M77F
notes: 10Fn3 clone, Del 1-8
B10: E10 (designed binder)
chain: B1 chain with V69E, E70G, M75E, M77F, T78I
B11: E20 (designed binder)
chain: B1 chain with R74Q, M75V, M77Y
notes: 10Fn3 clone, Del 1-8
B12: D12 (designed binder)
chain: B1 chain with M75K
notes: 10Fn3 clone, Del 1-8
B13: E12 (designed binder)
chain: B1 chain with V69F, E70A, N72D, R74H, M75E, L76I, M77L
notes: 10Fn3 clone, Del 1-8
B14: E17 (designed binder)
chain: B1 chain with R71E, M75V, M77N
notes: 10Fn3 clone, Del 1-8
B15: D11 (designed binder)
chain: B1 chain with R74H, M75K, M77F
notes: 10Fn3 clone, Del 1-8
B16: E13 (designed binder)
chain: B1 chain with V69L, R71Q, M75E
notes: 10Fn3 clone, Del 1-8
B17: D6 (designed binder)
chain: B1 chain with R74K, M75T
notes: 10Fn3 clone, Del 1-8
B18: D4 (designed binder)
chain: B1 chain with M75T, M77F
notes: 10Fn3 clone, Del 1-8
B19: E21 (designed binder)
chain: B1 chain with V69W, E70G, R71Y, N72K, G73D, R74H, M75E, M77L, T78I
notes: 10Fn3 clone, Del 1-8
B20: D7 (designed binder)
chain: B1 chain with R74K, M75V
notes: 10Fn3 clone, Del 1-8

molecular target: T1, mouse vascular endothelial growth factor receptor-2 Fc chimera (Flk-1-Fc) (mouse, UniProt P35918 20-762); assay: radioactive equilibrium binding assay, 1 nM Flk-1-Fc, % of input bound
T1 construct: Bought from R&D Systems; also called mouse VEGFR-2; not shown: Fc part of the purchased chimera, not specified
T1 sequence (P35918 20-762, change not shown): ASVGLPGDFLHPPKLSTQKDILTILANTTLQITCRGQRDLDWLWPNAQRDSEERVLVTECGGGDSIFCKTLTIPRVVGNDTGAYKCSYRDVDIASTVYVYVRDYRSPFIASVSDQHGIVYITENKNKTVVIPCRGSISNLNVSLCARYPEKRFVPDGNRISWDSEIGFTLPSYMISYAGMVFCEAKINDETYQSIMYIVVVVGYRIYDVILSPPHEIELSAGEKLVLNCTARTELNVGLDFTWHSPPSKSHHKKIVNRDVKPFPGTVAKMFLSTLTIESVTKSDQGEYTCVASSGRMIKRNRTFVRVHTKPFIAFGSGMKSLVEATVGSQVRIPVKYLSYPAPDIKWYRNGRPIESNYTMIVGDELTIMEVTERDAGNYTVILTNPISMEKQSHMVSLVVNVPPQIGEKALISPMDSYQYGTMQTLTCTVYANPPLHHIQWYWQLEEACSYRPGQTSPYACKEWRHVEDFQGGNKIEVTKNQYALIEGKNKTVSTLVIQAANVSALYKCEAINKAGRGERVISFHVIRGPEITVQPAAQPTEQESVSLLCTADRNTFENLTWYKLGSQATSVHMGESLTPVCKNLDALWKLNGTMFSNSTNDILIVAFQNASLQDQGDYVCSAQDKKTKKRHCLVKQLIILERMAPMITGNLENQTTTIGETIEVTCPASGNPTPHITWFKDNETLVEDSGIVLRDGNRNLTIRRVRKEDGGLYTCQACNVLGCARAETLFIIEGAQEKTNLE
Description: (§1) To prepare ³⁵S-labeled binding proteins for analysis, mRNA was prepared as described above for RNA-protein fusion production but the linker ligation step was omitted. The mRNA was expressed using rabbit reticulocyte lysate translation kit (Ambion) in the presence of ³⁵S-labeled Met at 30° C. for 1 hour. Expressed protein was purified on M2-agarose Flag beads (Sigma) as described above. This procedure produced the encoded protein without the nucleic acid tail. In a direct binding assay, VEGF-R2-Fc fusions in concentrations ranging from 0 to 200 nM were added to a constant concentration of the purified protein (0.2 or 0.5 nM) and incubated at 30° C. for 1 hour in buffer B. The receptor-binder complexes were captured using Protein A magnetic beads for another 10 minutes at room temperature using a Kingfisher™ The beads were washed with six reaction volumes of buffer B. The protein was eluted from the beads with 100 μL of 0.1 M KOH. […] of the reaction mixture and elution were dried onto a LumaPlate-96 (Packard) and the amount of ³⁵S on the plate was measured using a TopCount NXT instrument (Packard). The amount of fibronectin-based scaffold protein bound to the target was estimated as a percent of radioactivity eluted from Protein A magnetic beads compare to radioactivity in the reaction mixture. Nonspecific binding of fibronectin-based scaffold proteins to the beads was determined by measuring binding in the absence of KDR-Fc and represented less than 1-2% of the input. Specific binding was obtained through subtraction of nonspecific binding from total binding. Data was analyzed using the GraphPad Prizm software (GraphPad Software, Inc, San Diego, Calif.), fitted using a one site, non-linear binding equation.

Binding to 1 nM Flk-1, % [%]	Binder
38	B1
30	B2
23	B3
11	B4
2	B5
30	B6
0	B7
10	B8
40	B9
3	B10
11	B11
47	B12
1	B13
10	B14
3	B15
1	B16
30	B17
44	B18
1	B19
27	B20

molecular target: T2, human vascular endothelial growth factor receptor-2 Fc chimera (KDR-Fc) (human, UniProt P35968 20-764); assay: radioactive equilibrium binding assay, 1 nM KDR-Fc, % of input bound
T2 construct: range 1-764; also called human VEGFR-2; not shown: human IgG1 Fc
T2 sequence (P35968 20-764 limits assumed, change not shown, form in doubt): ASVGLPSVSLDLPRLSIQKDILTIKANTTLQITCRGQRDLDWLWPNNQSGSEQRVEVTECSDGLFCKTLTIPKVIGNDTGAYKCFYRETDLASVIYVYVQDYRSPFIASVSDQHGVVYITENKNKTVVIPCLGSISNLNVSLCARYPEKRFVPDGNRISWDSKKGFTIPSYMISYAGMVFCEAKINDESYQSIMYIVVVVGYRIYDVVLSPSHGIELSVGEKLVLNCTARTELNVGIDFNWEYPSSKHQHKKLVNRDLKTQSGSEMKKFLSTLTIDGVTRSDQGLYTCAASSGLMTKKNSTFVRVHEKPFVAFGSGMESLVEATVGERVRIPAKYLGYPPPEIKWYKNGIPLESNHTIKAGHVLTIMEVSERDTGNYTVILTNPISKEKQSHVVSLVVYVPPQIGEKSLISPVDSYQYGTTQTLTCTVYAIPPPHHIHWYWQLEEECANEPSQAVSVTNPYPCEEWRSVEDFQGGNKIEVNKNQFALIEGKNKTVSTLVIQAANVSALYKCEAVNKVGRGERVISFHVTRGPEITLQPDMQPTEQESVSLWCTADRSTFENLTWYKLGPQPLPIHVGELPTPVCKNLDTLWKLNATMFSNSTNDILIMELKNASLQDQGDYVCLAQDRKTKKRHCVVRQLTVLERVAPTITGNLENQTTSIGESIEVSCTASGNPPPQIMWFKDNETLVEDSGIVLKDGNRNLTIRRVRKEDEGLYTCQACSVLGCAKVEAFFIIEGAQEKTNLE
Description: as §1

Binding to 1 nM KDR, % [%]	Binder
38	B1
36	B2
38	B3
33	B4
52	B5
35	B6
35	B7
51	B8
31	B9
53	B10
43	B11
46	B12
36	B13
32	B14
24	B15
38	B16
32	B17
27	B18
47	B19
39	B20
